Assays:
[1] = biological target: T1, human PTH1R overexpressed on CHO cells (human, UniProt Q03431 27-593); experiment: cell-based or functional assay
T1 sequence (looked up): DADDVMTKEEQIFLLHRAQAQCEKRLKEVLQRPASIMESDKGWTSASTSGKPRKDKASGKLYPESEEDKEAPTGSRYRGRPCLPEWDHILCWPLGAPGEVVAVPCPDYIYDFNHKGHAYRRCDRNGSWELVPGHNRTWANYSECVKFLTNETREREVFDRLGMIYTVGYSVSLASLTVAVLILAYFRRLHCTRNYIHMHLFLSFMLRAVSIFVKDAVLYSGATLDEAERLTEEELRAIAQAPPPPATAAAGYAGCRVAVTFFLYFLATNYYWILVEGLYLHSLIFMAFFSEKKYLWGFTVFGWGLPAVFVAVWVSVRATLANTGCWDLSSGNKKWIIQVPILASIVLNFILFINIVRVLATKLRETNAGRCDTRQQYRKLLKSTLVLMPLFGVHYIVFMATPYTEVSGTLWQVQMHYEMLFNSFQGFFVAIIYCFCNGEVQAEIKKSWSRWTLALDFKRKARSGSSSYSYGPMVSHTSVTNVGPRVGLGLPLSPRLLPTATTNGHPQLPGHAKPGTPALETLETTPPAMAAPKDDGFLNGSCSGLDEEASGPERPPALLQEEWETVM

[2] = biological target: T2, rat PTH1R on UMR106 cells (rat, UniProt P25961 27-591); experiment: cell-based or functional assay
T2 sequence (looked up): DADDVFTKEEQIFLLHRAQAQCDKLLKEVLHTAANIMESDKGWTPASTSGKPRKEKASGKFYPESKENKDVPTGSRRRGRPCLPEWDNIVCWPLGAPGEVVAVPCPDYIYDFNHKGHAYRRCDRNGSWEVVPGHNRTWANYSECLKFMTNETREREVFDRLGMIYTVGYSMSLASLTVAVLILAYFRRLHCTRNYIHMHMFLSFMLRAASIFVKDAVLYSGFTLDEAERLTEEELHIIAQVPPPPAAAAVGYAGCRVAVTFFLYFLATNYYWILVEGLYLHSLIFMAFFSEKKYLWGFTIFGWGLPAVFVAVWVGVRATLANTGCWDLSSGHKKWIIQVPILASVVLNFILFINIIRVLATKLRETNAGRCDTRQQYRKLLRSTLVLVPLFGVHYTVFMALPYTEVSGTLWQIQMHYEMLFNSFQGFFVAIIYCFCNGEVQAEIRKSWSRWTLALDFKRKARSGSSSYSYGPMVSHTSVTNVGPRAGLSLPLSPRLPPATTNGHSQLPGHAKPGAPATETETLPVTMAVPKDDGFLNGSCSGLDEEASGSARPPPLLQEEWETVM

[3] = biological target: T3, human PTH1R on Saos-2 cells (endogenous) (human, UniProt Q03431 27-593); experiment: cell-based or functional assay
T3 sequence (looked up): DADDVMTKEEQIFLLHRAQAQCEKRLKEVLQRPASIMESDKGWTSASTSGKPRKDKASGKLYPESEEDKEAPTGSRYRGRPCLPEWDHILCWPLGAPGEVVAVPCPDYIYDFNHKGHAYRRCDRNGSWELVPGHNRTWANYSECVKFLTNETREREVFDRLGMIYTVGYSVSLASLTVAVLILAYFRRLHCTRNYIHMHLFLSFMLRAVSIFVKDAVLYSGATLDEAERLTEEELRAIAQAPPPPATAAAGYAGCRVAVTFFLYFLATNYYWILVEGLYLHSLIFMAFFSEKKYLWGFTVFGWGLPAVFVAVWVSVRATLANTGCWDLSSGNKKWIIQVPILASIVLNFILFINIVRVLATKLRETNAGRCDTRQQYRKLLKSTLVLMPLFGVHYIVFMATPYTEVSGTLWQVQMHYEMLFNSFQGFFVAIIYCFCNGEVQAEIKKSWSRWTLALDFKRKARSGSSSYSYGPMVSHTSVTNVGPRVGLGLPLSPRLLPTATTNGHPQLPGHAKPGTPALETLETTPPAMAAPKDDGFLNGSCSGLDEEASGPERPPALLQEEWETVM

[4] = biological target: T4, mouse PTH1R overexpressed on CHO cells (mouse, UniProt P41593 27-591); experiment: cell-based or functional assay
T4 sequence (looked up): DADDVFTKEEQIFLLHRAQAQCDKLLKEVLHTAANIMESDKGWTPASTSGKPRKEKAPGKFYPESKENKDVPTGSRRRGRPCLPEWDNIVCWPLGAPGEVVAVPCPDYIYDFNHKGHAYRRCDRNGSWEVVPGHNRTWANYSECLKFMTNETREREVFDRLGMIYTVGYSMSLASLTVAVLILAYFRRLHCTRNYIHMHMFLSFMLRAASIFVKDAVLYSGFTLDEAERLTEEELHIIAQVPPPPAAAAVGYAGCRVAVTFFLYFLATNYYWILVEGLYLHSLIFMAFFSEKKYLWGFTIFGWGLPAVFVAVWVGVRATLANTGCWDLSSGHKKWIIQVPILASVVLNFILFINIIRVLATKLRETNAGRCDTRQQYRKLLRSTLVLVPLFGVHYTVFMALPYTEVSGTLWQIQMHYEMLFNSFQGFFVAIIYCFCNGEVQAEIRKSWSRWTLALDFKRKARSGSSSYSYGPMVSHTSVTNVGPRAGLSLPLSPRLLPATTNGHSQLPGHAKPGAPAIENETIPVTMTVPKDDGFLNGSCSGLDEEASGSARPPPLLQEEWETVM

[5] = biological target: T5, recombinant N-terminal extracellular domain of the human PTH1R receptor (human, UniProt Q03431 27-188, limits assumed); experiment: SPR, IgG captured, ECD injected
T5 construct: domain: N-terminal extracellular domain; Bought reagent; also called N-ECD PTH1R; PTH1R N-terminal ECD
T5 sequence (looked up): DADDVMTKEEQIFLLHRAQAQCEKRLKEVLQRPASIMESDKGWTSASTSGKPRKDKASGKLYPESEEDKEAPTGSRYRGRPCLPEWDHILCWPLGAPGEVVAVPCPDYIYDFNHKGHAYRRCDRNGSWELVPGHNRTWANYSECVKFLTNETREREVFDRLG
Method: An anti-human IgG-Fc CMS sensor chip (GE Healthcare) was prepared using standard amine coupling as described by the manufacturer's protocol for the capture Ab on a BIACORE 4000 system (GE Healthcare). Briefly, the chip surface was activated with a 10 minute injection at 10 μL/minute of a freshly mixed 1:1 solution of 0.1 M N-Hydroxysuccinimide (NHS) and 0.4 M 1-Ethyl-3-(3-dimethylaminopropyl) carbodiimide hydrochloride (EDC). Following the activation injection, 15 ug/mL anti-human IgG-Fc antibody in acetate pH 4.5 was injected at 10 μL/minute for 10 minutes to achieve a high density capture surface. 7 minutes of 1M Ethanolamine hydrochloride-NaOH pH 8.5 was injected to block the surface. The NHS, EDC, and Ethanolamine used were from the BIACORE Amine Coupling Kit.
Kinetic Analysis was performed using HBS-EP+(Teknova) with 2.5 mg/mL BSA (Sigma Aldrich, St. Louis Mo.). Antibodies were diluted to 0.5 μg/mL and captured to achieve a surface density of 100 to 200 RU. […] Injections were performed at 30 μL/minute for 240 seconds with a 360 second dissociation time. Regeneration was then performed with one 60 second injection 3M MgCl.
The data were analyzed using BIACORE 4000 Evaluation Software and was double referenced by subtracting both the blank flow cell data and the averaged bracketing blank injections. The data was fit by simultaneously fitting the an off-rate (kd) and on-rate (kₐ), and calculating the KD as KD=kd/kₐ.

[6] = biological target: T1, human PTH1R overexpressed on CHO cells; experiment: cell-based or functional assay; remark: listed apart in the source
[7] = biological target: T4, mouse PTH1R overexpressed on CHO cells; experiment: cell-based or functional assay; remark: listed apart in the source
[8] = biological target: T2, rat PTH1R on UMR106 cells; experiment: flow cytometry, 1 hr at 4 C

## Human PTH(1-34) (from UniProt P01270 32-65) (peptide)
[1]
  EC50 of PTH (1-34) induced ERK1/2 phosphorylation without anti-PTH1R antibody: 3.8 nM
  EC50 of PTH(1-34), cAMP assay, vehicle only: 0.0307 nM
[2]
  EC50 of PTH(1-34), cAMP assay, vehicle only: 0.647 nM
[3]
  EC50 of PTH(1-34), cAMP assay, vehicle only: 0.524 nM
  PTH (1-34) dose response without anti-PTH1R antibody, M-CSF secretion by Saos-2 cells: 1.2 nM
[4]
  EC50 of PTH(1-34), cAMP assay, vehicle only: 0.0306 nM

## human PTHrP(1-34) (from UniProt P12272 37-70) (peptide)
[2]
  EC50 of PTHrP(1-34), cAMP assay, vehicle only: 0.333 nM
[4]
  EC50 of PTHrP(1-34), cAMP assay, vehicle only: 0.0431 nM

B1: XPA.85.333 (antibody, V domains shown)
VH: QMQLVQSGAEVKKPGSSVKVSCKASGGTFSSYAISWVRQAPGQGLEWMGGIIPIFGTANYAQKFQGRVTITADESTSTAYMELSSLRSEDTAVYYCARGYVVARLWGQGTLVTVSS
VL: DVVMTQTPLSLSVTPGQPASISCKSSQSLLHIDGKAYLYWYLQKPGQSPHLLIREVSTRFSGVSDRFTGSGSGTDFTLEISRVEAEDVGVYYCMQGLHLPPTFGQGTKVEIK
notes: Light-chain-shuffled variant of XPA.85.012
[5]
  Kd: 0.3 nM
  koff: 0.00054 s⁻¹
  kon: 1.8e+06 M⁻¹ s⁻¹
[6]
  IC50, inhibition of PTH(1-34)-induced cAMP accumulation: 11.4 nM
  IC50, inhibition of PTHrP(1-34)-induced cAMP accumulation: 5.61 nM
[7]
  IC50, inhibition of PTHrP(1-34)-induced cAMP accumulation: 2.04 nM
[8]
  binding result: binds

B2: XPA.85.344 (antibody, V domains shown)
VH: QMQLVQSGAEVKKPGSSVKVSCKASGGTFSSYAISWVRQAPGQGLEWMGGIIPIFGTANYAQKFQGRVTITADESTSTAYMELSSLRSEDTAVYYCARGYVVARLWGQGTLVTVSS
VL: DVVMTQTPLSLSVTPGQPASFSCKSTQSLLWRDGNTYLYWYLQKPGQSPQLLIYEVSGRFSGVPERFSGSGSGTDFTLEISRVEAEDVGVYYCMQSIHFPLTFGGGTKLEIK
notes: as for B1
[5]
  Kd: 0.18 nM
  koff: 0.00023 s⁻¹
  kon: 1.3e+06 M⁻¹ s⁻¹
[6]
  IC50, inhibition of PTH(1-34)-induced cAMP accumulation: 15.5 nM
  IC50, inhibition of PTHrP(1-34)-induced cAMP accumulation: 15.3 nM
[7]
  IC50, inhibition of PTHrP(1-34)-induced cAMP accumulation: 3.89 nM
[8]
  binding result: binds

B3: XPA.85.343 (antibody, V domains shown)
VH: QMQLVQSGAEVKKPGSSVKVSCKASGGTFSSYAISWVRQAPGQGLEWMGGIIPIFGTANYAQKFQGRVTITADESTSTAYMELSSLRSEDTAVYYCARGYVVARLWGQGTLVTVSS
VL: DVVMTQTPLSLSVTPGQPASISCKSSQSLLHIDGRTYLYWYLQKAGQPPQLLIYEVSNRFSGVPDRFSGSGSGTDFTLKISRVEAEDVGVYYCMQSIHFPLTFGGGTKLEIK
notes: as for B1
[5]
  Kd: 0.42 nM
  koff: 0.00045 s⁻¹
  kon: 1.1e+06 M⁻¹ s⁻¹
[6]
  IC50, inhibition of PTH(1-34)-induced cAMP accumulation: 14.4 nM
  IC50, inhibition of PTHrP(1-34)-induced cAMP accumulation: 17.8 nM
[7]
  IC50, inhibition of PTHrP(1-34)-induced cAMP accumulation: 3.87 nM
[8]
  binding result: binds

B4: XPA.85.334 (antibody, V domains shown)
VH: QMQLVQSGAEVKKPGSSVKVSCKASGGTFSSYAISWVRQAPGQGLEWMGGIIPIFGTANYAQKFQGRVTITADESTSTAYMELSSLRSEDTAVYYCARGYVVARLWGQGTLVTVSS
VL: DIVMTQTPLSLSVTPGQPASITCKSSQSLLHIDGKTYLYWFLQKPGQPPQLLIYEVSNRFSGVPDRFSGTGSGTDFTLKISRVEAEDVGVYYCMQSLHFPITFGPGTRLEIK
notes: as for B1
[5]
  Kd: 0.25 nM
  koff: 0.00021 s⁻¹
  kon: 860000 M⁻¹ s⁻¹
[6]
  IC50, inhibition of PTH(1-34)-induced cAMP accumulation (curve does not reach a plateau): 51.2 nM
  IC50, inhibition of PTHrP(1-34)-induced cAMP accumulation: 12.4 nM
[7]
  IC50, inhibition of PTHrP(1-34)-induced cAMP accumulation: 3.32 nM
[8]
  binding result: binds

Reference: patent US20200317817A1 (XOMA US, published 2020)
